Laboratory results published in publication PMC9860317, “Regulation of the DEAH/RHA helicase Prp43 by the G-patch factor Pfa1” (Proceedings of the National Academy of Sciences of the …, 2022).
Where “and” joins values, the source holds several entries; their conditions need not be identical. Equal entries are not always repeated.

How the values were obtained:
[1] = molecular target: Chaetomium thermophilum Prp43 with fluorescence labelling sites at C170 (RecA1) and C303 (RecA2), Cy3/Cy5-labelled (Chaetomium thermophilum)
[2] = molecular target: scPrp43 (Saccharomyces cerevisiae S288c) (UniProt P53131); experiment: smFRET (TIRF); conditions: smFRET: 50 mM Tris-HCl pH 7.5, 150 mM KCl, 3 mM MgCl2 (TIRF buffer B; imaging in TIRF buffer C), FP: 6 nM labeled ssRNA, buffer and temperature not in material
[3] = molecular target: T1, scPrp43;scPfa1(gp) (Saccharomyces cerevisiae S288c;Saccharomyces cerevisiae) (UniProt P53131+P53866); experiment: smFRET (TIRF); conditions: smFRET: 50 mM Tris-HCl pH 7.5, 150 mM KCl, 3 mM MgCl2 (TIRF buffer B; imaging in TIRF buffer C), FP: 6 nM labeled ssRNA, buffer and temperature not in material
[4] = molecular target: scPrp43 (Saccharomyces cerevisiae S288c) (UniProt P53131); experiment: fluorescence polarization; conditions: smFRET: 50 mM Tris-HCl pH 7.5, 150 mM KCl, 3 mM MgCl2 (TIRF buffer B; imaging in TIRF buffer C), FP: 6 nM labeled ssRNA, buffer and temperature not in material
[5] = molecular target: T1, scPrp43;scPfa1(gp) (Saccharomyces cerevisiae S288c;Saccharomyces cerevisiae); experiment: fluorescence polarization; conditions: smFRET: 50 mM Tris-HCl pH 7.5, 150 mM KCl, 3 mM MgCl2 (TIRF buffer B; imaging in TIRF buffer C), FP: 6 nM labeled ssRNA, buffer and temperature not in material

G-patch motif of Chaetomium thermophilum Pfa1 (domain or fragment)
ATP turnover (kcat) of the Prp43–Pfa1(gp) complex with ssRNA, coupled enzymatic assay [1]: 9.6 s⁻¹
ATP turnover (kcat) of the Prp43–Pfa1(gp) complex without ssRNA, coupled enzymatic assay (Prp43 alone: kcat = 0.01 s^-1) [1]: 0.4 s⁻¹

GCGCCUACGCCACCAGCUCCGUAGGCGCAGGAGCGCCUACGGAGCUGGUGGCGUAGGCGCAAAAAAAAAAAAAAAUAAAAAAAAAAAAAAAAAAAA [smFRET stem-loop RNA probe with 3' overhang]
binding signal ([2]; 0.5 uM Prp43, 2 mM AMPPNP): 36 % bound
binding signal ([2]; 5 uM Prp43, apo (main text gives 24%)): 21 % bound
binding signal ([3]; 0.5 uM Prp43, 2.5 uM Pfa1(gp), nucleotide-free): 88 % bound
binding signal (% bound (plus 20% partially unwound)) ([3]; 2 uM ATP, table row label cut, matched by FRET values): 55
binding signal ([3]; ADP, koff 0.45 s-1): 52 % bound

ssRNA (fluorescence polarization)
Kd ([4]; ADP): > 100 µM
Kd ([4]; AMPPNP): 0.4 µM
Kd ([4]; nucleotide-free): 7 µM
Kd ([5]; nucleotide-free, with Pfa1(gp)): 30 nM
Kd [5]: 80 nM and 500 nM
